Data reported in patent publication US20230416396A1 (Regeneron, published 2023).

Legend:
human 4-1BB on cells [1] = biological target: T1, human 4-1BB on cells (human, UniProt Q07011 24-255); experiment: cell-based or functional assay
human 4-1BB on cells [2] = biological target: T1, human 4-1BB on cells; experiment: cell-based or functional assay; remark: listed apart in the source
[3] = biological target: T2, human 4-1BB expressed with a C-terminal murine Fc tag (human, UniProt Q07011 24-186); experiment: SPR Biacore 8k, antibody captured by anti-human Fc, h4-1BB.mFc as analyte, 25 C
T2 construct: also called h4-1BB.mFc; REGN3585; not shown: C-terminal murine Fc tag
Experimental: (§1) Equilibrium dissociation constants (KD values) for human 4-1BB expressed with a C-terminal myc-myc-hexahistidine tag (h4-1BB.mmH, REGN3584) or human 4-1BB expressed with a C-terminal murine Fc tag (h4-1BB.mFc, REGN3585) binding to purified anti-CD38×4-1BB 1+2 antibodies were determined using a real-time surface plasmon resonance biosensor using a Biacore 8k instrument. The CM5 Biacore sensor surface was derivatized by amine coupling with a monoclonal mouse anti-human Fc antibody (REGN2567). All Biacore binding studies were performed in a buffer composed of 0.01M HEPES pH 7.4, 0.15M NaCl, 3 mM EDTA, 0.05% v/v Surfactant P20 (HBS-EP running buffer). […] Antibody-reagent association was monitored for 5 minutes while dissociation in HBS-EP running buffer was monitored for 10 minutes. At the end of each cycle, the anti-CD38×4-1BB 1+2 antibody capture surface was regenerated using a 10 second injection of 20 mM phosphoric acid. All binding kinetics experiments were performed at 25° C.
(§2) Kinetic association (kₐ) and dissociation (kd) rate constants were determined by fitting the real-time sensorgrams to a 1:1 binding model using Cytiva Insight curve fitting software. Binding dissociation equilibrium constants (KD) and dissociative half-lives (t/2) were calculated from the kinetic rate constants as: […]

[4] = biological target: T2, human 4-1BB expressed with a C-terminal …; experiment: SPR Biacore 4000, h4-1BB.mFc captured by anti-mouse Fc, antibody as analyte, 25 C
Experimental: Equilibrium dissociation constants (KD values) for human 4-1BB expressed with a C-terminal murine Fc tag (h4-1BB.mFc, REGN3585) binding to purified anti-CD38×4-1BB 1+2 antibodies were determined using a real-time surface plasmon resonance biosensor using a Biacore 4000 instrument. […] All Biacore binding studies were performed in a buffer composed of 0.01M HEPES pH 7.4, 0.15M NaCl, 3 mM EDTA, 0.05% v/v Surfactant P20 (HBS-EP running buffer). Different concentrations of CD38×4-1BB 1+2 constructs prepared in HBS-EP running buffer (ranging from 100 to 6.25 nM in 4-fold serial dilutions) were injected over the h4-1BB.mFc (REGN3585) captured surface at a flow rate of 30 μL/minute. Antibody-reagent association was monitored for 5 minutes while dissociation in HBS-EP running buffer was monitored for 10 minutes. At the end of each cycle, the h4-1BB.mFc capture surface was regenerated using a 40 sec injection of 10 mM glycine, pH 1.5. All binding kinetics experiments were performed at 25° C.
as §2

human 4-1BB on cells [5] = biological target: T1, human 4-1BB on cells; experiment: cell-based or functional assay; remark: listed apart in the source
[6] = biological target: T3, human 4-1BB expressed with a C-terminal myc-myc-hexahistidine tag (human, UniProt Q07011 24-186); experiment: SPR Biacore 8k, antibody captured by anti-human Fc, h4-1BB.mmH as analyte, 25 C
T3 construct: also called h4-1BB.mmH; REGN3584; not shown: C-terminal myc-myc-hexahistidine tag
Experimental: as §1, §2

T1 sequence (Q07011 24-255): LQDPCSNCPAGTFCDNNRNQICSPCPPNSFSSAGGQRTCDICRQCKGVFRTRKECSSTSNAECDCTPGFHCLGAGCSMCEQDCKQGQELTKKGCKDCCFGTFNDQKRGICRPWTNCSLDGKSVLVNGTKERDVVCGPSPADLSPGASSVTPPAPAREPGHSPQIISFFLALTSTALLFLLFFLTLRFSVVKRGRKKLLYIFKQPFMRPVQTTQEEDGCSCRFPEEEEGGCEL
T2 sequence (Q07011 24-186 limits assumed): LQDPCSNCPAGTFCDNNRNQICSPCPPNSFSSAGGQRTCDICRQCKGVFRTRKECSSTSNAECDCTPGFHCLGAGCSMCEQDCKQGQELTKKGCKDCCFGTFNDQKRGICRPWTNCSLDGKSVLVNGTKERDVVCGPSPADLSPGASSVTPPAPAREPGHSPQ
T3 sequence (Q07011 24-186 limits assumed): as above

Binder | EC50 of luciferase activity, HEK293/NFkB-Luc/h4-1BB reporter + OPM2 (human 4-1BB on cells [1]) [nM] | MAX luciferase activity, HEK293/NFkB-Luc/h4-1BB reporter + HEK293/CD20 (human 4-1BB on cells [1]) [RLU] | MAX luciferase activity, HEK293/NFkB-Luc/h4-1BB reporter + HEK293/CD20/CD38 (human 4-1BB on cells [1]) [RLU] | MAX luciferase activity, HEK293/NFkB-Luc/h4-1BB reporter + MOLP-8 (human 4-1BB on cells [1]) [RLU] | MAX luciferase activity, HEK293/NFkB-Luc/h4-1BB reporter + OPM2 (human 4-1BB on cells [1]) [RLU] | EC50 of IFNγ release, T cells + HEK293/CD20/CD38 + REGN2281 (human 4-1BB on cells [2]) [nM] | EC50 of IFNγ release, T cells + MOLP-8 + REGN5458 (human 4-1BB on cells [2]) [nM] | MAX IFNγ release, T cells + HEK293/CD20 + REGN2281 (human 4-1BB on cells [2]) [pg/mL] | MAX IFNγ release, T cells + HEK293/CD20/CD38 + REGN2281 (human 4-1BB on cells [2]) [pg/mL] | MAX IFNγ release, T cells + MOLP-8 + IsoC (human 4-1BB on cells [2]) [pg/mL] | MAX IFNγ release, T cells + MOLP-8 + REGN5458 (human 4-1BB on cells [2]) [pg/mL] | MAX IFNγ release, T cells + NALM-6 (human 4-1BB on cells [2]) [pg/mL] | 100 nM h4-1BB.mFc Bind (RU) [3] [RU] | Kd [3] [nM] | koff [3] [s⁻¹] | kon [3] [M⁻¹ s⁻¹] | t½ [3] [min] | 100 nM Ab Bind (RU) [4] [RU] | Kd [4] [nM] | koff [4] [s⁻¹] | other results
REGN9682 (bispecific antibody, human IgG4 S228P, kappa, 1+2 format, hIgG4P-PVA; The linker between the two 4-1BB Fabs is (G4S)3; also called CD38x4-1BB (1 + 2), (G4S)3; 26812P2 x 35333P2 (IN) + 35333P2 (OUT)) heavy 1: EVQLVESGGGLVQPGRSLRLSCGASGFTFDDYVMHWVRQIPGKGLEWVAGISWNSGSIGYADSVKGRFTISRDNAKNSLYLQMNSLRAEDTALYFCAKDHIDPYSSSLYYYYGMDVWGQGTTVTVSSASTKGPSVFPLAPCSRSTSESTAALGCLVKDYFPEPVTVSWNSGALTSGVHTFPAVLQSSGLYSLSSVVTVPSSSLGTKTYTCNVDHKPSNTKVDKRVGGGGSGGGGSGGGGSEVQLVESGGGLVQPGRSLRLSCGASGFTFDDYVMHWVRQIPGKGLEWVAGISWNSGSIGYADSVKGRFTISRDNAKNSLYLQMNSLRAEDTALYFCAKDHIDPYSSSLYYYYGMDVWGQGTTVTVSSASTKGPSVFPLAPCSRSTSESTAALGCLVKDYFPEPVTVSWNSGALTSGVHTFPAVLQSSGLYSLSSVVTVPSSSLGTKTYTCNVDHKPSNTKVDKRVESKYGPPCPPCPAPPVAGPSVFLFPPKPKDTLMISRTPEVTCVVVDVSQEDPEVQFNWYVDGVEVHNAKTKPREEQFNSTYRVVSVLTVLHQDWLNGKEYKCKVSNKGLPSSIEKTISKAKGQPREPQVYTLPPSQEEMTKNQVSLTCLVKGFYPSDIAVEWESNGQPENNYKTTPPVLDSDGSFFLYSRLTVDKSRWQEGNVFSCSVMHEALHNRFTQKSLSLSPGK heavy 2: EVQLVESGGGLVQPGRSLRLSCAASGFTFDDYAMHWVRQAPGKGLEWVSGISWKSDNIGYADSVKGRFTISRDNAKNSLYLQMNSLRAEDTALYYCAKALGGWKFDYYYGMDVWGQGTTVTVSSASTKGPSVFPLAPCSRSTSESTAALGCLVKDYFPEPVTVSWNSGALTSGVHTFPAVLQSSGLYSLSSVVTVPSSSLGTKTYTCNVDHKPSNTKVDKRVESKYGPPCPPCPAPPVAGPSVFLFPPKPKDTLMISRTPEVTCVVVDVSQEDPEVQFNWYVDGVEVHNAKTKPREEQFNSTYRVVSVLTVLHQDWLNGKEYKCKVSNKGLPSSIEKTISKAKGQPREPQVYTLPPSQEEMTKNQVSLTCLVKGFYPSDIAVEWESNGQPENNYKTTPPVLDSDGSFFLYSRLTVDKSRWQEGNVFSCSVMHEALHNHYTQKSLSLSLGK light: not shown | 0.0219 | 1e+06 | 2.4e+06 | 2.2e+06 | 2.1e+06 | 0.0526 | 0.0725 | 1570 | 5270 | 161 | 3410 | 658 | 283 | 0.86 | 0.000177 | 206000 | 65.3 | 234 | 0.716 | 0.000308 | EC50 of IFNγ release, T cells + NALM-6 (human 4-1BB on cells [2]): 0.0419 nM; kon [4]: 430000 M⁻¹ s⁻¹; t½ [4]: 37.6 min; EC50 of IL-2 release, T cells + HEK293/CD20/CD38 + REGN2281 (human 4-1BB on cells [5]): 0.0607 nM; EC50 of IL-2 release, T cells + MOLP-8 + REGN5458 (human 4-1BB on cells [5]): 0.133 nM; EC50 of IL-2 release, T cells + NALM-6 (human 4-1BB on cells [5]): 0.0717 nM; MAX IL-2 release, T cells + HEK293/CD20 + REGN2281 (human 4-1BB on cells [5]): 52 pg/mL; MAX IL-2 release, T cells + HEK293/CD20/CD38 + REGN2281 (human 4-1BB on cells [5]): 912 pg/mL; MAX IL-2 release, T cells + MOLP-8 + IsoC (human 4-1BB on cells [5]): 96 pg/mL; MAX IL-2 release, T cells + MOLP-8 + REGN5458 (human 4-1BB on cells [5]): 79 pg/mL; MAX IL-2 release, T cells + NALM-6 (human 4-1BB on cells [5]): 205 pg/mL; 100 nM h4-1BB.mmH Bind (RU) [6]: 107 RU; Kd [6]: 13.8 nM; koff [6]: 0.00494 s⁻¹; kon [6]: 358000 M⁻¹ s⁻¹; t½ [6]: 2.3 min
REGN9686 (bispecific antibody, human IgG4 S228P, kappa, 1+2 format, hIgG4P-PVA; The linker between the two 4-1BB Fabs is (G4S)2; also called CD38x4-1BB (1 + 2), (G4S)2; 26812P2 x 35333P2 (IN) + 35333P2 (OUT)) heavy 1: EVQLVESGGGLVQPGRSLRLSCGASGFTFDDYVMHWVRQIPGKGLEWVAGISWNSGSIGYADSVKGRFTISRDNAKNSLYLQMNSLRAEDTALYFCAKDHIDPYSSSLYYYYGMDVWGQGTTVTVSSASTKGPSVFPLAPCSRSTSESTAALGCLVKDYFPEPVTVSWNSGALTSGVHTFPAVLQSSGLYSLSSVVTVPSSSLGTKTYTCNVDHKPSNTKVDKRVESKYGPPGGGGSGGGGSEVQLVESGGGLVQPGRSLRLSCGASGFTFDDYVMHWVRQIPGKGLEWVAGISWNSGSIGYADSVKGRFTISRDNAKNSLYLQMNSLRAEDTALYFCAKDHIDPYSSSLYYYYGMDVWGQGTTVTVSSASTKGPSVFPLAPCSRSTSESTAALGCLVKDYFPEPVTVSWNSGALTSGVHTFPAVLQSSGLYSLSSVVTVPSSSLGTKTYTCNVDHKPSNTKVDKRVESKYGPPCPPCPAPPVAGPSVFLFPPKPKDTLMISRTPEVTCVVVDVSQEDPEVQFNWYVDGVEVHNAKTKPREEQFNSTYRVVSVLTVLHQDWLNGKEYKCKVSNKGLPSSIEKTISKAKGQPREPQVYTLPPSQEEMTKNQVSLTCLVKGFYPSDIAVEWESNGQPENNYKTTPPVLDSDGSFFLYSRLTVDKSRWQEGNVFSCSVMHEALHNRFTQKSLSLSPGK heavy 2: EVQLVESGGGLVQPGRSLRLSCAASGFTFDDYAMHWVRQAPGKGLEWVSGISWKSDNIGYADSVKGRFTISRDNAKNSLYLQMNSLRAEDTALYYCAKALGGWKFDYYYGMDVWGQGTTVTVSSASTKGPSVFPLAPCSRSTSESTAALGCLVKDYFPEPVTVSWNSGALTSGVHTFPAVLQSSGLYSLSSVVTVPSSSLGTKTYTCNVDHKPSNTKVDKRVESKYGPPCPPCPAPPVAGPSVFLFPPKPKDTLMISRTPEVTCVVVDVSQEDPEVQFNWYVDGVEVHNAKTKPREEQFNSTYRVVSVLTVLHQDWLNGKEYKCKVSNKGLPSSIEKTISKAKGQPREPQVYTLPPSQEEMTKNQVSLTCLVKGFYPSDIAVEWESNGQPENNYKTTPPVLDSDGSFFLYSRLTVDKSRWQEGNVFSCSVMHEALHNHYTQKSLSLSLGK light: not shown | 0.018 | 1.1e+06 | 2.4e+06 | 2.2e+06 | 2.1e+06 | 0.0874 | 0.102 | 1450 | 6820 | 85 | 3890 | 651 | 267 | 1.2 | 0.000205 | 171000 | 56.3 | 232 | 0.717 | 0.000337 | kon [4]: 470000 M⁻¹ s⁻¹; t½ [4]: 34.3 min; EC50 of IL-2 release, T cells + HEK293/CD20/CD38 + REGN2281 (human 4-1BB on cells [5]): 0.0453 nM; EC50 of IL-2 release, T cells + MOLP-8 + IsoC (human 4-1BB on cells [5]): 0.0361 nM; EC50 of IL-2 release, T cells + MOLP-8 + REGN5458 (human 4-1BB on cells [5]): 0.0833 nM; EC50 of IL-2 release, T cells + NALM-6 (human 4-1BB on cells [5]): 0.0723 nM; MAX IL-2 release, T cells + HEK293/CD20 + REGN2281 (human 4-1BB on cells [5]): 57 pg/mL; MAX IL-2 release, T cells + HEK293/CD20/CD38 + REGN2281 (human 4-1BB on cells [5]): 709 pg/mL; MAX IL-2 release, T cells + MOLP-8 + IsoC (human 4-1BB on cells [5]): 90 pg/mL; MAX IL-2 release, T cells + MOLP-8 + REGN5458 (human 4-1BB on cells [5]): 62 pg/mL; MAX IL-2 release, T cells + NALM-6 (human 4-1BB on cells [5]): 169 pg/mL; 100 nM h4-1BB.mmH Bind (RU) [6]: 101 RU; Kd [6]: 14.8 nM; koff [6]: 0.00474 s⁻¹; kon [6]: 319000 M⁻¹ s⁻¹; t½ [6]: 2.4 min
